According to US20070099822A1, “Regulation of tissue mineralization and phosphate metabolism by asarm peptides” (priority 2003, published 2007):
Where “and” joins values, the source holds several entries; their conditions need not be identical. Identical values can stand only once. Entries after “also recorded” stand apart in the source; their conditions may differ.

Key:
[1] = tested on: mouse osteoblast cell-line 2T3; experiment: Mineralized bone matrix formation assay (von Kossa), BMP2-induced; type: cell-based; conditions: 2T3 cells; for effect on BMP2-mediated mineralization (von Kossa staining): Hu-MEPE 10-800 ng/mL, ASARM-peptide 60 and 300 ng/mL, control peptide 300 ng/mL
Description: Mineralized bone matrix formation assay. A mouse osteoblast cell-line (2T3-cells) were monitored using a mineralized matrix formation assay as described by Bhargava et al. (Ultrastructural analysis of bone nodules formed in vitro by isolated fetal rat calvaria cells. Bone 9:155-63, 1988) and cultured as described previously (Bhargava et al., supra; Chen et al. Differential roles for bone morphogenetic protein (BMP) receptor type IB and IA in differentiation and specification of mesenchymal precursor cells to osteoblast and adipocyte lineages. J Cell Biol 142:295-305, 1998; and Zhao, et al. Bone morphogenetic protein receptor signaling is necessary for normal murine postnatal bone formation. J Cell Biol 157:1049-60, 2002). Mineralization of the murine osteoblastic 2T3 cell-line has been extensively studied using physical techniques, electron microscopy and histological techniques. This cell line (2T3) undergoes exogenous BMP2-induced mineralized-matrix indistinguishable from normal bone-mineral hydroxyapatite in-vitro (Bhargava et al., supra; Chen et al., supra; and Zhao et al., supra). The cells were plated in 24-well culture plates at density of 2×10^4 cells/well and cultured with minimal essential medium (MEM) supplemented with 10% FCS. When the cells reached confluency (day 0), the medium was changed to MEM containing 5% FCS, 100 μg/mL ascorbic acid and 5 mM β-glycerol phosphate with or without 100 ng/mL of BMP-2. The effects of Hu-MEPE, MEPE ASARM-peptide and control peptide at different doses (see results section) in the absence and presence of BMP2 were measured using the von Kossa stain for mineralization. The medium was changed every other day and fresh reagents were added. Von Kossa stain of mineralized bone matrix was performed as follows. The cell cultures were washed with PBS twice, fixed in phosphate buffered formalin for 10 min, and then washed with water, and serially dehydrated in 70%, 95%, and 100% ethanol, twice each and air dried. The plates were rehydrated from 100% to 95% to 80% ethanol to water before staining. The water was removed, a 2% silver nitrate solution was added, and the plates were exposed to sunlight for 20 min, after which the plates were rinsed with water. 5% sodium thiosulfate was added for 3 min and the plates were then rinsed with water. The modified van Gieson stain was then used as a counterstain after the von Kossa stain. The unmineralized collagen matrix can be recognized by the yellow/red van Gieson stain. The acid fuchsin solution (5 part of 1% acid fuchsin, 95 part of picric acid, and 0.25 part of 12 M HCl) was added for 5 min. The plates were washed with water, and then 2×95% ethanol and 2×100% ethanol, and dried for image analysis. The area of von Kossa stained matrix was quantitated as previously described (Chen et al., supra). Briefly matrix was quantified by automated image analysis using a video analysis program (Jandel Scientific, San Rafael Calif.) and also a Bio-Rad (Hercules, Calif.) Quantity-1 image analysis capture program. A video screen camera (CCD/RGB; Sony Corp., Park Ridge, N.J.) linked to a microscope (model BH2; Olympus Corp., Precision Instruments Division, Lake Success, N.Y.) equipped with metallurgical lens was used to image plates.

[2] = tested on: Na+ dependent phosphate co-transport in primary human renal proximal tubule epithelial cells (RPTEC); experiment: 33PO4 uptake scintillation proximity assay (SPA) in RPTEC; type: cell-based
Experimental: Measurement of ^33PO4 uptake and ^14C-α-methyl D-glucose uptake. A novel technique, scintillation proximity assay (SPA), was used to measure ^33PO4 uptake in-vitro. Human renal proximal-tubule primary cells (RPTEC) were purchased from Clonetics-Biowhittaker (Walkersville, Md.) (cat. no. CC2553) and were cultured and subcultured using the manufacturers recommended protocols, methods, buffers and media (cat. nos. CC3190, CC5034). Also a human renal cell-line (Hu-CL8) was cultured as previously described (Rowe et al. Candidate 56 and 58 kDa protein(s) responsible for mediating the renal defects in oncogenic hypophosphatemic osteomalacia. Bone 18(2):159-169, 1996). For ^33PO4-uptake measurement cells were grown in REBM media supplemented with 5% fetal calf serum (REBM-FCS) to 80% confluence (Clonetics-Biowhitaker, Walkersville, Md.: cat. nos. CC2553, CC3190 and CC5034) and seeded into 96 well (3000 cells/well) cytostar-T scintillating-microplates (Amersham-Pharmacia Biotech, Piscataway, N.J.: cat. no. RPNQ 0162). Cells were then cultured in 200 μL of REBM-FCS media for 24 h. Media was then replaced with serum free media (REBM) and the cells incubated for a further 3-4 h with Hu-MEPE, PTH (1-34) or media control respectively in REBM media. The concentrations of PTH (1-34) and Hu-MEPE were […] and each experimental dose was repeated eight times for statistical analysis. Following incubation media was removed and replaced with either phosphate uptake buffer (PUB) consisting of 150 mM NaCl/1 mM Cacl2/1.8 mM MgSO4/10 mM HEPE pH 7.0/0.1 mM phosphate buffer pH 7.0 and 3 uCi mL^−1 33P as orthophosphoric acid (18 MBq/mL or 5775.7 Gbq/mg stock solution Perkin Elmer, Wellesley, Mass.: cat. no. NEZ080). In order to determine the Na-dependent phosphate co-transporter activity a separate set of control cells were incubated with the same buffer but with choline chloride (150 mM) substituted for NaCl (CHUB buffer). After 10 min at 37° C. the reaction was terminated by removing the PUB and CHUB buffers and replacing with STOP buffer (CHUB buffer without radioisotope). The cytostar scintillation plates were then directly assayed for counts (CPM) using a Hewlett-Packard (Palo Alto, Calif.) Multiplate Top-counter calibrated for ^33P SPA assay. Due to the unique design of the 96 well cytostar-plate radioactive decay in solution is not detected by the counter. In contrast, radioisotope attached to or taken into the cells initiates release of plastic-scintillant photons that are detected by the top-counter photo-multiplier tube. Thus, no washes are required and direct CPM can be counted in living cells. Following CPM determination the buffers were removed from the living cells and fresh media supplemented with cell-titre-96 (Promega-Biotech, Madison, Wis.: cat. no. G5421) cell-number detection media. Cells were then further incubated at 37° C. for 4 h. Conversion of a tetrazolium salt to a colored formazan product by living cells was then measured at 490 nm using a 96 well multi-well spectrophotometer with KC-4 software (absorbance at 490 nm is directly proportional to the number of living cells). Na-dependent ^33P uptake was then calculated by subtracting background counts and the choline chloride non Na-dependent ^33P uptake and results expressed as ^33PO4 femtomoles/10^4-cells/6 min. […]

Row | Molecule | effect on BMP2-mediated mineralization (von Kossa staining) ([1]; BMP2 100 ng/mL, listed as MEPE ASARM-peptide) | effect on BMP2-mediated mineralization (von Kossa staining) ([1]; BMP2 100 ng/mL, listed as MEPE-ASARM-peptide) | Vmax of percentage inhibition of 33PO4-uptake [2] | inhibition of Na+ dependent phosphate co-transport [2] | Km of inhibition of 33PO4-uptake ([2]; lineweaver-burke plot) | effect on BMP2-mediated mineralization at concentrations above 100 ng/mL ([1]; BMP2 100 ng/mL, Hu-MEPE above 100 ng/mL) | effect on BMP2-mediated mineralization (von Kossa staining) ([1]; BMP2 100 ng/mL) | mineralization in the absence of BMP2 ([1]; no BMP2)
1 | H-CFSSRRRDDSSESSDSGSSSESDGD-OH [ASARM-peptide] | dose-dependently inhibits | inhibit |  |  |  |  |  | 
2 | Hu-MEPE: purified insect expressed full-length recombinant human MEPE (Matrix Extracellular Phosphoglycoprotein) (protein) PTFQPQTEKTKQSCVEEQRQEEKNKDNIGFHHLGKRINQELSSKENIVQERKKDLSLSEASENKGSSKSQNYFTNRQRLNKEYSISNKENTHNGLRMSIYPKSTGNKGFEDGDDAISKLHDQEEYGAALIRNNMQHIMGPVTAIKLLGEENKENTPRNVLNIIPASMNYAKAHSKDKKKPQRDSQAQKSPVKSKSTHRIQHNIDYLKHLSKVKKIPSDFEGSGYTDLQERGDNDISPFSGDGQPFKDIPGKGEATGPDLEGKDIQTGFAGPSEAESTHLDTKKPGYNEIPEREENGGNTIGTRDETAKEADAVDVSLVEGSNDIMGSTNFKELPGREGNRVDAGSQNAHQGKVEFHYPPAPSKEKRKEGSSDAAESTNYNEIPKNGKGSTRKGVDHSNRNQATLNEKQRFPSKGKSQGLPIPSRGLDNEIKNEMDSFNGPSHENIITHGRKYHYVPHRQNNSTRNKGMPQGKGSWGRQPHSNRRFSSRRRDDSSESSDSGSSSESDGD |  |  | 53.4% | dose-dependent in-vitro inhibition | 27.4 ng/mL and 27.39 ng/mL | very effective inhibitors; also recorded: completely inhibited mineralization | dose dependently and reproducibly inhibited mineralization; also recorded: inhibit; also recorded: highly significant inhibition | no effect on mineralization; also recorded: indistinguishable to control cells
